Test results reported in publication PMC7812859, “Structure of SARS-CoV-2 ORF8, a rapidly evolving immune evasion protein” (Proceedings of the National Academy of Sciences of the …, 2020).

Molecular target: the molecule itself
Assay: crystal structure

B1: SeMet-labeled V32M/L84M ORF8 double mutant (domain or fragment)
chain: QECSLQSCTQHQPYMVDDPCPIHFYSKWYIRVGARKSAPLIELCVDEAGSKSPIQYIDIGNYTVSCMPFTINCQEPKLGSLVVRCSFYEDFLEYHDVRVVLDFI
modifications: selenomethionine (SeMet-labeled)
notes: also called ORF8 V32M, L84M double-mutant; SeMet-labeled ORF8 double-mutant protein
  binding result: binds
